Legend:
hTIGIT-hFc [1] = target: T1, hTIGIT-hFc (human, UniProt Q495A1 22-141); test: FACS blocking: hTIGIT-hFc bound on U2-OS cells (PVR and CD112), then antibody, APC anti-human IgG Fc
T1 construct: also called antigen protein hTIGIT-hFc; human TIGIT recombinant protein carrying a human Fc tag; not shown: human Fc tag
T1 sequence (looked up): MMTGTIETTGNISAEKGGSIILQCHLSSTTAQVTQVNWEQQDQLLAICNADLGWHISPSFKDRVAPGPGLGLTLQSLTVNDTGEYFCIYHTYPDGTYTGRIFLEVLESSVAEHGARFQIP
Description: U2-OS cells to be detected (human osteosarcoma cells, naturally and highly expressing PVR and CD112 by means of detection) were counted; centrifugated at 300 g for 5 min; resuspended with an FCM buffer; and cell density was adjusted to 4E+06 cell/mL for later use. […] According to an experimental design, in each well, 50 μL of the antigen protein and 50 μL of the cell (the volume of each cell added into a 96-well V-shaped plate being 2E+05 cell/well) were respectively added in the 96-well V-shaped plate; and incubation was performed in dark on ice for 30 min. Centrifugation (300 g/5 min) was performed; supernatant was discarded; 200 μL of the FCM buffer was added for washing once; centrifugation (300 g/5 min) was performed; and the supernatant was discarded. The antibody was added to the 96-well V-shaped plate (in 100 μL/well); and incubation was performed in dark on ice for 30 min. Centrifugation (300 g/5 min) was performed; supernatant was discarded; 200 μL of the FCM buffer was added for washing once; centrifugation (300 g/5 min) was performed; and the supernatant was discarded. Secondary antibodies (APC anti-human IgG Fc, 1:500 dilution) were added to the 96-well V-shaped plate (in 100 μL/well); and incubation was performed in dark on ice for 30 min. […]

hTIGIT-hFc [2] = target: T1, hTIGIT-hFc; test: FACS blocking: antibody preincubated with hTIGIT-hFc, then CHO-hPVR cells; unit as printed on the axis, Log(uM); the same range is labelled nM in Fig. 4A and the method's top concentration of 40 µg/mL fits nM
Description: The CHO-engineered cells CHO-hPVR cells recombinantly expressing full-length human PVR were counted centrifugated at 300 g for 5 min, resuspended with an FCM buffer, the cells were added to the 96-well V-shaped plate; the volume of each cell added into a 96-well V-shaped plate was 2E+05 cell/well (being added in 50 μL/well); and incubation was performed in dark on ice for 30 min. Centrifugation (300 g/5 min) was performed; supernatant was discarded; 200 μL of the FCM buffer was added for washing once; centrifugation (300 g/5 min) was performed; and the supernatant was discarded. Secondary antibodies (PE anti-human IgG Fc, 1:500 dilution) were added to the 96-well V-shaped plate (in 100 μL/well); and incubation was performed in dark on ice for 30 min. Centrifugation (300 g/5 min) was performed; supernatant was discarded; 200 μL of the FCM buffer was added for washing once; centrifugation (300 g/5 min) was performed; and the supernatant was discarded. 100 μL of the 1×PBS was added for resuspending, and on-machine detection was performed.

B1: 14Tigit-1-1 mouse monoclonal antibody (antibody, V domains shown)
VH: DVQLQESGPGLVKPSQSLSLTCTVTGYSITSDYAWNWIRQFPGNKLEWMGYISYSGSTRSNPSLKSRISITRDTSKNQFFLQLNSMTAEDTATYYCGGWEVRNYYAMDYWGQGTSVTVSS
VL: DIVMTQSHKFMSTSVGDRVSITCKASQHVSTAVAWYQQKPGQSPKLLIYSASYRYTGVPDRFTGSGSGTDFTFTISSVQAEDLAVYYCQQHYNTPWTFGGGTKLEIKR
notes: Mouse monoclonal antibody from hybridoma
IC50 (hTIGIT-hFc [1]): 2.52 nM | IC50 (read off the curve) (hTIGIT-hFc [2]): ~1 nM

From US20240002500A1 (GUANGDONG FAPON BIOPHARMA, published 2024)
